Assays:
CA09 HA = assay: BLI
PR34 HA = assay: BLI

MEDI8852
Kd (CA09 HA): 502 pM | koff (CA09 HA): 0.000147 s⁻¹ | Kd (PR34 HA): 1360 pM | koff (PR34 HA): 0.00023 s⁻¹
